Measurements reported in patent publication US20240261333A1 (published 2024).

T1: TGM1 (human, UniProt P22735 1-817, limits assumed)
T1 construct: also called NP_000350.1
T1 sequence (looked up): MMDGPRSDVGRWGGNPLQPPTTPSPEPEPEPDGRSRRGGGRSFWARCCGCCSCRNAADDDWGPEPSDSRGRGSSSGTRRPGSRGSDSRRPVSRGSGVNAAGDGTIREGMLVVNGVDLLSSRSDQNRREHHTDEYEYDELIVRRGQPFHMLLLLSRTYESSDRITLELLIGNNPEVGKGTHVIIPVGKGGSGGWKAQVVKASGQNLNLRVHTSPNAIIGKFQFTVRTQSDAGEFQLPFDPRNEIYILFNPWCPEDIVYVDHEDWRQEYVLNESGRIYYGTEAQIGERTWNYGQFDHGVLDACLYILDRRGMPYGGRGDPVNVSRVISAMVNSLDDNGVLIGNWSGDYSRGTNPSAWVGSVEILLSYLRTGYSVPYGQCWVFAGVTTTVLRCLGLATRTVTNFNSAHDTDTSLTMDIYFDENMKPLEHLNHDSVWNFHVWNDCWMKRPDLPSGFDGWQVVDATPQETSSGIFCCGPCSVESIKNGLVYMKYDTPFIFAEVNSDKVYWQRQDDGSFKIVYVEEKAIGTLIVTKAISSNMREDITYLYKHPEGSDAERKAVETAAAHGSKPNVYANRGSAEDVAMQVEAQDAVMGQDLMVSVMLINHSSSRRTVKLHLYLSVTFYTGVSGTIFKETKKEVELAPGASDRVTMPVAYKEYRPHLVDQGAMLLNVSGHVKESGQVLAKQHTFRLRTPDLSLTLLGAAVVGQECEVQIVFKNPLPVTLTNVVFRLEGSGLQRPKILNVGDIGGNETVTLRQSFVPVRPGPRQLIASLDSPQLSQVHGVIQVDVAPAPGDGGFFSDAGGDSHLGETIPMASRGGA


Tests used:
Experiment in all cases: co-IP with anti-FLAG, N-FLAG B3GNT2, mass spectrometry
YBX1 = molecular target: T2, YBX1 (human, UniProt P67809 2-324)
T2 construct: also called NP_004550.2
T2 sequence (P67809 2-324 limits assumed): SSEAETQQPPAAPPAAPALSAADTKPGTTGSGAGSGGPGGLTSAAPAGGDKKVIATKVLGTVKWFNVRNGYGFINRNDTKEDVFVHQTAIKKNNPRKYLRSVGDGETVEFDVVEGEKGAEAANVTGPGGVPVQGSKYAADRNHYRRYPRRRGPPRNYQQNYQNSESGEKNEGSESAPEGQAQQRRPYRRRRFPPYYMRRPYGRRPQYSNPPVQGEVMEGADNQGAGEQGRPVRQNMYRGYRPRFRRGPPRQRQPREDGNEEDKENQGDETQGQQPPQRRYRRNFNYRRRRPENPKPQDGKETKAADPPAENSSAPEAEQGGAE

RPS14 = RPS14 (human, UniProt P62263 2-151)
TPM3 = molecular target: T3, TPM3 (human, UniProt P06753-2 2-248)
T3 construct: also called NP_705935.1
T3 sequence (P06753 other isoform, or with tags, fused parts or gaps limits assumed): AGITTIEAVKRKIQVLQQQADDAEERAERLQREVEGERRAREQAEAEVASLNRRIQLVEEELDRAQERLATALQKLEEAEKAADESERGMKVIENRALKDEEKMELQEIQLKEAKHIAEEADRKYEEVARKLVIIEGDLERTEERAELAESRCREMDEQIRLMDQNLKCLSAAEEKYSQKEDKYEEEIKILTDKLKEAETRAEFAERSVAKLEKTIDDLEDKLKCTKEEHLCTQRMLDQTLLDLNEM

TM9SF1 = molecular target: T4, TM9SF1 (human, UniProt O15321-2 28-489, limits assumed)
T4 construct: also called NP_001014842.1 (+1)
T4 sequence (O15321 other isoform, or with tags, fused parts or gaps limits assumed): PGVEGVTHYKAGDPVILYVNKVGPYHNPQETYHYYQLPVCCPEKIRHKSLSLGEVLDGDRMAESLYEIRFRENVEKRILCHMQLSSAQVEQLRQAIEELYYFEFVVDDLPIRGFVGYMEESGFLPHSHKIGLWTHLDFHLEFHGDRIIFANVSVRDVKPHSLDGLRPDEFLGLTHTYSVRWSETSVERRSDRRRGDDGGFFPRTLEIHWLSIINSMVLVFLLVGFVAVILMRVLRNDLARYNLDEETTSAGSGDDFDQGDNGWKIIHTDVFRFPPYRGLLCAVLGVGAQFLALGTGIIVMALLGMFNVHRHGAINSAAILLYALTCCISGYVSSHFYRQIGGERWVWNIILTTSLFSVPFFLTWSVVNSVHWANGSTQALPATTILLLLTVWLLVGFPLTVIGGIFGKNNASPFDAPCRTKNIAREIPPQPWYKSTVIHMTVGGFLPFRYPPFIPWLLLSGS

TGM1 = molecular target: T1, TGM1
DDX17 = molecular target: T5, DDX17 (human, UniProt Q92841 1-729, limits assumed)
T5 construct: also called NP_001091974.1
T5 sequence (Q92841 whole entry): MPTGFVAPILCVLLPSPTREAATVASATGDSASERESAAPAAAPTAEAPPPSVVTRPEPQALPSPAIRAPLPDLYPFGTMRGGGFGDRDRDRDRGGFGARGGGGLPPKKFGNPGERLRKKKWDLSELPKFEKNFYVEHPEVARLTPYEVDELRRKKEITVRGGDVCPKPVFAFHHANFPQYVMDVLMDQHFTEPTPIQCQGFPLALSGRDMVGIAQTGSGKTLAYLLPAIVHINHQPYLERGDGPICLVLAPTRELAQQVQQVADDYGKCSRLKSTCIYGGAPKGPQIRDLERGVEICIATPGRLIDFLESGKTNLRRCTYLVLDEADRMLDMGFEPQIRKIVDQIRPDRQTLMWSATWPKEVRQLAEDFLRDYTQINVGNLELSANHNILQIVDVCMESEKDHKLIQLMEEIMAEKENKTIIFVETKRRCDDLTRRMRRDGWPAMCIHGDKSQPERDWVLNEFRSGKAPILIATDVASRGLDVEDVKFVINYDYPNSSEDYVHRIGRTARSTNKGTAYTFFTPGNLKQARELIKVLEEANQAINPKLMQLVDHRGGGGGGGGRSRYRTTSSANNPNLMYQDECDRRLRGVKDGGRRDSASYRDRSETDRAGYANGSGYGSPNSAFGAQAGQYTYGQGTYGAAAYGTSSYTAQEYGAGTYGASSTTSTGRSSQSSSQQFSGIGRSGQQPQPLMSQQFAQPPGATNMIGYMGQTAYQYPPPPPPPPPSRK

RUVBL2 = molecular target: T6, RUVBL2 (human, UniProt Q9Y230 2-463)
T6 construct: also called NP_006657.1
T6 sequence (Q9Y230 2-463 limits assumed): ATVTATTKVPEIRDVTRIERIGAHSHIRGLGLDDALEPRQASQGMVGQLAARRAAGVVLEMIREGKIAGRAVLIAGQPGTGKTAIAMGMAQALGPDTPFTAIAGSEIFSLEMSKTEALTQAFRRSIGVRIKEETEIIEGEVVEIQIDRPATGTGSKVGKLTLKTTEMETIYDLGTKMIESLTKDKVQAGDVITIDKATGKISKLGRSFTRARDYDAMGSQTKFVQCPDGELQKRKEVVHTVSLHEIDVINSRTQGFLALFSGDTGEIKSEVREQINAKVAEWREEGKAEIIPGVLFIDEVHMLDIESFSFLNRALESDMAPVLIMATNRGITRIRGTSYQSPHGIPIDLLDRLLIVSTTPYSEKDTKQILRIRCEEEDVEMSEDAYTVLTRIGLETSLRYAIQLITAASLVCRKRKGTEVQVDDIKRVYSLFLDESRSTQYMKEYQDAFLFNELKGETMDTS

co-IP mass spectrometry count (YBX1)	co-IP mass spectrometry count (RPS14)	co-IP mass spectrometry count (TPM3)	co-IP/MS count, N-term FLAG (TM9SF1)	co-IP/MS count, N-term FLAG (TGM1)	co-IP/MS count, N-term FLAG (DDX17)	co-IP/MS count, N-term FLAG (RUVBL2)	Binder
2	11	6	–	–	–	–	N-terminal FLAG tagged B3GNT2 (enzyme, human, UniProt Q9NY97 1-397, looked up, FLAG-tagged ORF overexpressed in cells; pulled down from lysate with mouse anti-FLAG; also called N-FLAG B3GNT2; N-term FLAG; not shown: N-terminal FLAG tag) MSVGRRRIKLLGILMMANVFIYFIMEVSKSSSQEKNGKGEVIIPKEKFWKISTPPEAYWNREQEKLNRQYNPILSMLTNQTGEAGRLSNISHLNYCEPDLRVTSVVTGFNNLPDRFKDFLLYLRCRNYSLLIDQPDKCAKKPFLLLAIKSLTPHFARRQAIRESWGQESNAGNQTVVRVFLLGQTPPEDNHPDLSDMLKFESEKHQDILMWNYRDTFFNLSLKEVLFLRWVSTSCPDTEFVFKGDDDVFVNTHHILNYLNSLSKTKAKDLFIGDVIHNAGPHRDKKLKYYIPEVVYSGLYPPYAGGGGFLYSGHLALRLYHITDQVHLYPIDDVYTGMCLQKLGLVPEKHKGFRTFDIEEKNKNNICSYVDLMLVHSRKPQEMIDIWSQLQSAHLKC
–	–	–	0	17	23	0	N-terminal FLAG tagged B3GNT2 (enzyme, human, UniProt Q9NY97 1-397, looked up, FLAG-tagged ORF overexpressed in A375 cells; pulled down from the lysate with mouse anti-FLAG; also called N-FLAG B3GNT2; N-term FLAG; not shown: N-terminal FLAG tag) MSVGRRRIKLLGILMMANVFIYFIMEVSKSSSQEKNGKGEVIIPKEKFWKISTPPEAYWNREQEKLNRQYNPILSMLTNQTGEAGRLSNISHLNYCEPDLRVTSVVTGFNNLPDRFKDFLLYLRCRNYSLLIDQPDKCAKKPFLLLAIKSLTPHFARRQAIRESWGQESNAGNQTVVRVFLLGQTPPEDNHPDLSDMLKFESEKHQDILMWNYRDTFFNLSLKEVLFLRWVSTSCPDTEFVFKGDDDVFVNTHHILNYLNSLSKTKAKDLFIGDVIHNAGPHRDKKLKYYIPEVVYSGLYPPYAGGGGFLYSGHLALRLYHITDQVHLYPIDDVYTGMCLQKLGLVPEKHKGFRTFDIEEKNKNNICSYVDLMLVHSRKPQEMIDIWSQLQSAHLKC
